Values belong to the binder of their own block, whether it stands above or below them.
What was measured:
[1] = biological target: T1, recombinant cynomolgus GPC3 (cyGPC3) (R&D Systems) (cynomolgus, UniProt A0A2K5VK50 24-558); assay: ELISA, cyGPC3 coated
Method: (§1) Recombinant huGPC3 (R&D Systems) at the concentration of 1 μg/mL in PBS was coated overnight on microtiter plates at 4° C. After five washes with 100 μL PBS-0.05% T (PBS supplemented with 0.05% (v/v) Tween 20), the plates were blocked with 2% BSA (w/v) in PBS-0.1% T (PBS-0.1% T-2% BSA) for 1 h at room temperature. After washing with 100 μL PBS-0.05% T (PBS supplemented with 0.05% (v/v) Tween 20) five times, exemplary fusion proteins (SEQ ID NOs: 87 and […] and CD137Ac1-Fusion 1 to 7) or the GPC3 antibody as include in the fusion proteins (SEQ ID NOs: 81 and 82) at different concentrations were added to the wells and incubated for 1 h at room temperature, followed by another wash step. Bound molecules under study were detected by incubation with 1:5000 diluted anti-human IgG Fc-HRP (Jackson Laboratory) in PBS-0.1% T-2% BSA. After an additional wash step, fluorogenic HRP substrate (QuantaBlu, Thermo) was added to each well and the fluorescence intensity was detected using a fluorescence microplate reader.
The same ELISA setup was also employed to determine the binding potency of fusion proteins to cynomolgus GPC3 and huCD137, where recombinant cyGPC3 (R&D Systems) or huCD137-His (recombinant human CD137 with C-terminal polyhistidine tag, R&D Systems) was instead coated on a microtiter plate. The testing agents were similarly titrated and bound agents were detected via anti-NGAL-HRP. […]

[2] = biological target: T2, human GPC3 expressed on cells (SK-Hep1::huGPC3; HepG2, Hep3B and MKN-45 tumor cells) (human, UniProt P51654 25-554); assay: flow cytometry on HepG2 tumor cells (GPC3 high)
T2 construct: whole, on cells; also called GPC3-positive tumor cells; human GPC3-expressing cells
Method: (§2) 5×10⁴ cells per well were incubated for 1 h in ice-cold PBS containing 5% fetal calf serum (PBS-FCS). A dilution series of the testing molecule were added to the cells and incubated for 1 h on ice. Cells were washed twice with PBS and then incubated with a goat anti-hlgG Alexa647-labeled antibody or goat anti-hlgG Alexa488-labeled antibody for 30 min on ice. Cells were subsequently washed and analyzed using iQue Flow cytometer (Intellicyte Screener). Mean geometric fluorescent signals were plotted and fitted with Graphpad software. The geometric means of the fluorescence intensity were used to calculate EC₅₀ values using a four-parameter logistic regression with bottom fixed to background.
(§3) For flow cytometric analysis, tumor cell lines with different GPC3 expression levels (high to moderate expression: HepG2>Hep3B>MKN-45) and GPC3 negative cell line NCI-N87 were incubated with an exemplary fusion protein SEQ ID NOs: 87 and 82, the GPC3 antibody or the CD137 specific lipocalin mutein (Fc fusion) as included in the fusion protein (SEQ ID NOs: 81 and 82 and SEQ ID NO: 98, respectively), a reference CD137 antibody SEQ ID NOs: 26 and 27, or an isotype control (SEQ ID NO: 24 and 25), and detected using a fluorescently labeled anti-human IgG antibody as described in Example 6.

[3] = biological target: T2, human GPC3 expressed on cells …; assay: flow cytometry on Hep3B tumor cells (GPC3 positive)
Method: as §2, §3

[4] = biological target: T2, human GPC3 expressed on cells …; assay: flow cytometry on MKN-45 tumor cells (GPC3 moderate)
Method: as §2, §3

[5] = biological target: T3, recombinant human GPC3 (huGPC3) (R&D Systems) (human, UniProt P51654 25-559); assay: ELISA, huGPC3 coated, detection anti-human IgG Fc-HRP
T3 construct: also called biotinylated huGPC3
Method: as §1
Exemplary results are depicted in FIG. 2A-2D, together with the fit curves resulting from a 1:1 binding sigmoidal fit, where the EC₅₀ value and the maximum signal were free parameters, and the slope was fixed to unity.

[6] = biological target: T2, human GPC3 expressed on cells …; assay: flow cytometry on SK-Hep1::huGPC3 cells, anti-human IgG detection
Method: (§4) For flow cytometric analysis, respective cell lines were incubated with an exemplary fusion protein (SEQ ID NOs: 87 and 82), the GPC3 antibody or the CD137 specific lipocalin mutein (Fc fusion) as included in the fusion protein (SEQ ID NOs: 81 and 82 and SEQ ID NO: 98, respectively), a reference CD137 antibody SEQ ID NOs: 26 and 27, or an isotype control (SEQ ID NOs: 24 and 25) and detected using a fluorescently labeled anti-human IgG antibody in FACS analysis as described in the following:
as §2

[7] = biological target: T1, recombinant cynomolgus GPC3 (cyGPC3) …; assay: SPR (Biacore T200), binder captured by anti-human IgG Fc, cyGPC3 as analyte, 1:1 model
Method: (§5) The anti-human IgG Fc antibody (GE Healthcare) was immobilized on a CM5 sensor chip using standard amine chemistry: the carboxyl groups on the chip were activated using 1-ethyl-3-(3-dimethylaminopropyl)-carbodiimide (EDC) and N-hydroxysuccinimide (NHS). Subsequently, anti-human IgG Fc antibody solution (GE Healthcare) at a concentration of 25 μg/mL in 10 mM sodium acetate (pH 5.0) was applied at a flow rate of 5 μL/min until an immobilization level of 6000-10000 resonance units (RU) was achieved. Residual non-reacted NHS-esters were blocked by passing a solution of 1M ethanolamine across the surface. The reference channel was treated in an analogous manner. Subsequently, testing fusion proteins (SEQ ID NOs: 87 and 82 and CD137Ac1-Fusion 1) or the GPC3 antibody as included in the fusion protein (SEQ ID NOs: 81 and 82) at 0.2 μg/ml in HBS-EP+ buffer was captured by the anti-human IgG-Fc antibody at the chip surface for 180 s at a flow rate of 10 μL/min. After each capture step, the needle was washed.
(§6) The binding assay was carried out with a contact time of 180 s, a dissociation time of 900 s, and a flow rate of 30 μL/min. After each injection, the needle was cleaned with 40 mM NaOH+20% isopropanol. All measurements were performed at 25° C. […] Prior to the protein measurements, three startup cycles were performed for conditioning purposes. Data were evaluated with Biacore T200 Evaluation software (v2.0). Double referencing was used and the 1:1 binding model was used to fit the raw data.

[8] = biological target: T3, recombinant human GPC3 (huGPC3) (R&D …); assay: SPR (Biacore T200), binder captured by anti-human IgG Fc, huGPC3 as analyte, 1:1 model
Method: as §5, §6

[9] = biological target: T4, human CD137 expressed on cells (Flp-In-CHO::huCD137; NFkB-luc2/CD137 Jurkat cells) (human, UniProt Q07011 24-255); assay: flow cytometry, CHO cells transfected with human CD137, detection labelled anti-human IgG, GeoMean RL1-H [upper graph]
T4 construct: whole, on cells; also called human CD137-expressing cells
Method: as §4, §2

[10] = biological target: T2, human GPC3 expressed on cells …; assay: flow cytometry, SK-Hep1 cells transfected with human GPC3, detection labelled anti-human IgG, GeoMean RL1-H [upper graph]
Method: as §4, §2

[11] = biological target: T5, huCD137-His (recombinant human CD137 with C-terminal polyhistidine tag, R&D Systems) (human, UniProt Q07011 24-186); assay: ELISA, huCD137-His coated, binder titrated to 100 nM, detection anti-NGAL-HRP per paragraph 342 (the antibody itself carries no lipocalin mutein) [upper graph]
T5 construct: also called biotinylated huCD137-His; not shown: C-terminal polyhistidine tag

[12] = biological target: T4, human CD137 expressed on cells …; assay: cell-based or functional assay
[13] = biological target: T4, human CD137 expressed on cells …; assay: flow cytometry on Flp-In-CHO::huCD137 cells, anti-human IgG detection
Method: as §4, §2

[14] = biological target: T2, human GPC3 expressed on cells …; assay: flow cytometry, SK-Hep1 cells transfected with human GPC3, detection labelled anti-human IgG, GeoMean BL1-H [lower graph]
Method: as §4, §2

T4 sequence (Q07011 24-255): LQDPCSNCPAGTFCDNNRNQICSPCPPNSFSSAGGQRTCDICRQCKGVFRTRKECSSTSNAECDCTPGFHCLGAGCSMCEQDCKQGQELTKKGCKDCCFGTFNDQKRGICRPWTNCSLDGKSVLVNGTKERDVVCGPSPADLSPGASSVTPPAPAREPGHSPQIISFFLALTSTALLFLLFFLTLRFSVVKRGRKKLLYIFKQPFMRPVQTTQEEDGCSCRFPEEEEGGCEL
T3 sequence (P51654 25-559 limits assumed): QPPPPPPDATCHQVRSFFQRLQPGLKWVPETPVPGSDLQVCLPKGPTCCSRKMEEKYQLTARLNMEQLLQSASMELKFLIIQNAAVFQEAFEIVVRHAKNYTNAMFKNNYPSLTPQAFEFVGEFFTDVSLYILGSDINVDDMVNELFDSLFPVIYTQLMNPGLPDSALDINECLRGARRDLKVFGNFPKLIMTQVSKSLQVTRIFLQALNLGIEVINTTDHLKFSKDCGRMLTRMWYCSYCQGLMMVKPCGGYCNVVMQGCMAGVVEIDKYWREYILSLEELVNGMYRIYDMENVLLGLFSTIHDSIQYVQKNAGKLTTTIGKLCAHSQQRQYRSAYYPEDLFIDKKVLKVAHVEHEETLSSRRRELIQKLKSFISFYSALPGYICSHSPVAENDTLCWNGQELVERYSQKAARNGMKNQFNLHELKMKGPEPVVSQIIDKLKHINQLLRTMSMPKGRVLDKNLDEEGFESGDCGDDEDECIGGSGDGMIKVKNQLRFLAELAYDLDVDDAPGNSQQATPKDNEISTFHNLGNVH
T2 sequence (P51654 25-554 limits assumed): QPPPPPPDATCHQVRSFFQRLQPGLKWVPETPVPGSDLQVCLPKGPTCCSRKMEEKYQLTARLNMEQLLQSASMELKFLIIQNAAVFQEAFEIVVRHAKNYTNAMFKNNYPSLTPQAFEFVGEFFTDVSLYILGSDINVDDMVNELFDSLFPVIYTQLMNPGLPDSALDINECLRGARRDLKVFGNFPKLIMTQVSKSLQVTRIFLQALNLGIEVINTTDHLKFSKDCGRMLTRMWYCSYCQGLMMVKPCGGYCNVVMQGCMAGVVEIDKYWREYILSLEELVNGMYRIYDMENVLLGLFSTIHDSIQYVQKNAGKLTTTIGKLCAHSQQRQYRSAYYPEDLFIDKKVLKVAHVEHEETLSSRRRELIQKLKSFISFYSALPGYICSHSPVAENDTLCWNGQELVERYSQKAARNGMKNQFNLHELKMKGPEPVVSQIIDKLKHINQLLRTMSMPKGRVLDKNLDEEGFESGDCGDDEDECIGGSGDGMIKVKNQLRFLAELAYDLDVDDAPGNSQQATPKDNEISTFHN

- EC50 [1]: 0.23 nM
- EC50 [2]: 16.7 nM
- EC50 [3]: 6.35 nM
- EC50 [4]: 1.46 nM
- EC50 [5]: 0.13 nM
- EC50 [6]: 19.9 nM
- Kd [7]: 0.737 nM
- koff [7]: 0.000151 s⁻¹
- kon [7]: 205000 M⁻¹ s⁻¹
- Kd [8]: 0.686 nM
- koff [8]: 0.000248 s⁻¹
- kon [8]: 361000 M⁻¹ s⁻¹
- binding result [9]: no binding (tested: 100 nM)
- EC50 (read off the curve) [10]: ~5 nM
- binding result [11]: no binding (tested: 100 nM)
B1: GPC3 antibody as included in the fusion protein (SEQ ID NOs: 81 and 82) (antibody, human IgG4 S228P, kappa, F234A L235A, V domains shown)
VH: QVQLVQSGAEVKKPGASVKVSCKASGYTFTDYEMHWVRQAPGQGLEWMGALDPKTGDTAYSQKFKGRVTLTADKSTSTAYMELSSLTSEDTAVYYCTRFYSYTYWGQGTLVTLVS
VL: DVVMTQSPLSLPVTPGEPASISCRSSQSLVHSNRNTYLHWYLQKPGQSPQLLIYKVSNRFSGVPDRFSGSGSGTDFTLKISRVEAEDVGVYYCSQNTHVPPTFGQGTKLEIKR
notes: also called GPC3 specific antibody

- EC50, CD137 Bioassay (NFkB-luc2/CD137 Jurkat cells co-cultured with Hep3B) [12]: 1.39 nM
- EC50, CD137 Bioassay (NFkB-luc2/CD137 Jurkat cells co-cultured with HepG2) [12]: 0.94 nM
- EC50, CD137 Bioassay (NFkB-luc2/CD137 Jurkat cells co-cultured with MKN-45) [12]: 1.47 nM
- EC50, CD137 Bioassay (NFkB-luc2/CD137 Jurkat cells co-cultured with NCI-N87) [12]: 1.67 nM
- EC50 [13]: 9.61 nM
- binding result [14]: no binding (tested: 500 nM)
B2: reference CD137 antibody (SEQ ID NOs: 26 and 27) (antibody, human IgG4 S228P, kappa, V domains shown)
VH: QVQLQQWGAGLLKPSETLSLTCAVYGGSFSGYYWSWIRQSPEKGLEWIGEINHGGYVTYNPSLESRVTISVDTSKNQFSLKLSSVTAADTAVYYCARDYGPGNYDWYFDLWGRGTLVTVSS
VL: EIVLTQSPATLSLSPGERATLSCRASQSVSSYLAWYQQKPGQAPRLLIYDASNRATGIPARFSGSGSGTDFTLTISSLEPEDFAVYYCQQRSNWPPALTFGGGTKVEIKR
